Data published in the supplement of paper PMC9170038.

Test system: MS2 coat protein
Assay: apparent KD of MS2 coat protein; designed switch direction (-1 OFF switch, 1 ON switch): -1; higher = weaker reporter binding
How it was run: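 Designed RNA switches with common flanks were transcribed on Illumina chips by stalled E. coli RNA polymerase and titrated with SNAP-549-labelled MS2 coat protein, from 0.7 or 1.5 nM doubling to 3 µM, in Tris-HCl pH 7.5 buffer with KCl, MgCl2, BSA, DTT, tRNA and Tween-20. Steps lasted 0.8–1.5 h (lowest) to 10–20 min (highest). Titrations ran without input, with 200 uM small-molecule ligand, or with an oligonucleotide input. Normalised cluster fluorescence was curve-fitted, and apparent KD is the per-design median over clusters.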

[1] = Eterna round: R95, input ligand: FMN 200 uM
[2] = Eterna round: R95, input ligand: microRNA oligo, concentration not stated
[3] = Eterna round: R95, input ligand: none
[4] = input ligand: microRNA oligo, concentration not stated

Sequence	apparent KD of MS2 coat protein (input ligand: FMN 200 uM)	apparent KD of MS2 coat protein (input ligand: none)	apparent KD of MS2 coat protein [1]	apparent KD of MS2 coat protein [2]	apparent KD of MS2 coat protein [3]	apparent KD of MS2 coat protein [4]
GUUUAAUUAGGAUAUGCAAGCGGUGUUAGAAAAGUAUCCAAACAUGAGGAUCACCCAUGUAGAAGGAGUUGUUG [Eternabot (L2) Solution 59] (Eterna round: R97, puzzle: Exclusion 2)	28.5 nM	30.2 nM				
AGUACUAACACGAAAGUGUUAGUACAAUAAGCUUGUGCAACAUGAGGAUCACCCAUGUCCUCAUAAGCUCGUCUUAU [salish99_TOv2_r3_044] (puzzle: Sensor v3, turn-off variant 2)			544 nM	75.2 nM	574 nM	
AUCUGCACGCUGCGGUCCUACAUGAGGAUCACCCAUGUGGUCUGGUGGCGUGGGUCACCGGACUUGGCUCGUCUUGC [salish99_S_TOV1_R5_054] (Eterna round: R97, puzzle: Sensor, turn-off variant 1)	19.8 nM	19.6 nM				
CCUCAACAGUAGGAUAUCAUCAAACUAUUGUGAUGAGAAGGACUGACAUGAGGAUCACCCAUGUUAACGUGAUG [Exclusion 6 - 6:c] (puzzle: Exclusion 6)			70.8 nM	21 nM	20.4 nM	
AACUCACAUGAGGAUCACCCAUGUGAGGAUAUGGUUUCGCUGGCCGUAGCCAGUGGAACCAGAAGGCGCGUGAU [Mat - Exclusion 1 - JL Mod - D26] (Eterna round: R97, puzzle: Exclusion 1)	52.4 nM	58.9 nM				
AAUAACAUGUUGAUCAAAUACAUGAGGAUCACCCAUGUAUGCUUUUUGUUCGAUAAGAUCAACUAAUAAUAAUAAUA [StovNew/1-C] (Eterna round: R97, puzzle: Sensor, turn-off variant 1)	12.2 nM	12.6 nM				
GGUUGACAUGAGGAUCACCCAUGUGAGGAUAUGCGAGAGAAAAAAGUGAGGAAGAAUAGCAGAAGGCGCUGUCG [salish99-ex1_r3_011] (puzzle: Exclusion 1)			44.6 nM	41.7 nM	21.1 nM	
GACUGACAUGAGGAUCACCCAUGUAAGGAUAUAGGGAACGUCGUUCCGCAACCCGCGCCUAGAAGGUACAAGGU [EX1 C.11] (Eterna round: R97, puzzle: Exclusion 1)	18.2 nM	16.1 nM				
CAGGACUGAGGAUAUGCGCGGACAAGAUCCUCAAUCCCAAAACAUGAGGAUCACCCAUGUAGAAGGCAGAAAUA [Edbein] (puzzle: Exclusion 2)			32.9 nM	35.4 nM	31 nM	
AAGUACCGUCACGAUAGUGAUGGUACAACAAGUAGUGAAACAUGAGGAUCACCCAUGUCCUCAAUUGCUCGUCUUAU [Sensor 3 - 81] (puzzle: Sensor v3, turn-off variant 2)			776 nM	264 nM	1020 nM	
UCAUGGGAGCGAGGAUAUAGCCCAUGUGAAGAACUAGAAGGCGCAGACAUGAGGAUCACCCAUGUGUUCAUGAGGAGGUGGACA (Eterna round: R96, puzzle: Exclusion NG 1)	215 nM	83.4 nM				82.5 nM
AAGUCGACGGUGAGGAUAUAGGUUGAACGACAGAUCUAGAAGGUACAUGAGGAUCACCCAUGUGGGUAACGUCG [Brourd's EX4 #36] (Eterna round: R97, puzzle: Brourd's mod of Exclusion 4)	54.8 nM	98.2 nM				
CAGUACUGAGGAUAUACAUGAGGAUCACCCAUGUGCCUAAGCUAGGAUACUAGCAUUAGUAGAAGGCAGUACUG [Fiskers Ex 3 828 mod 15] (puzzle: Exclusion 3)				13.6 nM		
CCUCUACAUGAGGAUCACCCAUGUGAGGAUAUCAGUGCAAAAGGCACGUAAUAAAUCGUGAGAAGGCACAUGGG [EX1 A.15] (Eterna round: R97, puzzle: Exclusion 1)	24 nM	112 nM				
AAACGGAUAGGAUAUACUUGAGGAUCACCCAAGUGAUCAGUCCCGGGAAUUCCCGCAAGUAGAAGGAUCAAAAG [Arisrevexe] (Eterna round: R97, puzzle: Exclusion 3)	1120 nM	162 nM				
AAAACUGCUCAGGAUAUUUGUGUGUCAGGGCAUAAAGAAGGGAGCACAUGAGGAUCACCCAUGUGUUGGGUUCC [Zasozaer] (puzzle: Exclusion 6)				68.7 nM		
GUAAUUAUAUAGGAUAUCGAAUUUAUUAUUUAACGAGAAGGAUGAACAUGAGGAUCACCCAUGUGGUAUCAUGG [JL-ex6-3.04] (puzzle: Exclusion 6)			145 nM	139 nM	165 nM	
GUCACAUGGACAUAGGAUCACAUGAGGAUCACCCAUGUGACUAACAAGCUUUUUGUUCGUCUUAUGUCUAUGUGAAU [Stov1/16-B2] (Eterna round: R97, puzzle: Sensor, turn-off variant 1)	13.2 nM	12.3 nM				

Sequence	apparent KD of MS2 coat protein (input ligand: FMN 200 uM)	apparent KD of MS2 coat protein (input ligand: none)	apparent KD of MS2 coat protein [1]	apparent KD of MS2 coat protein [2]	apparent KD of MS2 coat protein [3]	apparent KD of MS2 coat protein [4]
AAAUAAUGAGGAUAUACAGUGUAAAACAUGAGGAUCACCCAUGUUCUUCAAUUAGUAUUUGUAGAAGGCAUAGGUA [JR_Ex5_Sub094] (Eterna round: R97, puzzle: Exclusion 5)	38.5 nM	60.7 nM				
UAGGUACAUGAGGAUCACCCAUGUGAGGAUAUAGUUGAAGAUUGCGAGAGGUUGAGGACUAGAAGGCACAGUGG [JR_Exclu1_Sub038] (puzzle: Exclusion 1)			137 nM	63.5 nM	90.2 nM	
GGUCAAGAACAGAACCGCGCUGCCAUUGACCGCUCAUUUACAUGAGGAUCACCCAUGUUUUUUGCUUGUCUUGUUAC [Beusdieson] (puzzle: Sensor v3, turn-off variant 2)			16.2 nM	89.9 nM	18.7 nM	
AAGUACCGUCACGAUAGUGAUGGUACAACAAGUAGUGAAACAUGAGGAUCACCCAUGUCCUCAUUUGCUCGUCUUAU [Sensor 3 - 87] (puzzle: Sensor v3, turn-off variant 2)			1030 nM	365 nM	806 nM	
UCCUGACAUGAGGAUCACCCAUGUAAGGAUAUUAAAACGACUGAACAACUCAGCGGUAUAAGAAGGUACAUGUA [EX1 A.10] (Eterna round: R97, puzzle: Exclusion 1)	12 nM	14.4 nM				
GGUUAUUCUGUAUGGGUACACAUGAGGAUCACCCAUGUACAGAGGUCUACCCUAAUAUAGCAAGCUGGCCCGUCCUA [Eternabot (L1) Solution 24] (Eterna round: R97, puzzle: Sensor, turn-off variant 1)	148 nM	132 nM				
UUUUAACAUGAGGAUCACCCAUGUGAGGAUAUCGAAAUUUAUAUUAAUAUUUAUAUAACGAGAAGGCACAUUUU [JMF 55] (puzzle: Exclusion 1)				65.3 nM		
CUAGCGAUUGUAGGAUAUCGGACUGUUUCAGUCUGAGAAGGACAUGAGGAUCACCCAUGUGGAGGAUCGUGAGAUCCACGCUAG [JL ENG1 3.81] (Eterna round: R96, puzzle: Exclusion NG 1)	136 nM	34.5 nM				24.6 nM
GUGUGCAGAGGAUAUACAGAGGAAAAGAAGAAAGAAGAGGGACAUGAGGAUCACCCAUGUAGAAGGCUGAGUGU [Excluse me!! 24 - Jieux - Exclusion 2] (puzzle: Exclusion 2)				30.4 nM		
ACAUGAGGAUCACCCAUGUACAGGGUUUAGUUUCAUUGUUUGAAGGAUAUACUUAGUUAGUUGUUGUAGAAGGUCAUAUUUUAU [JR_ExcNG3_Sub002] (Eterna round: R96, puzzle: Exclusion NG 3)						156 nM
GGAUCGAAUGUCAGGAUAUGCUGGUCCUUGGAUCAGCAGAAGGGACAUGAGGAUCACCCAUGUCCUCUCGGUCC [Eli bmx4 4.52] (Eterna round: R97, puzzle: Brourd's mod of Exclusion 4)	222 nM	26.5 nM				
GUGUACGUAGGAUAUACAUGAGGAUCACCCAUGUGAAUAAGAUAGAAUAAGAUAAAGUGUAGAAGGACGAGUGU [Excluse me!!! 6 - Jieux - Exclusion 3] (puzzle: Exclusion 3)				30.4 nM		
GUUUACAAGCUAAGAUCCUACAUGAGGAUCACCCAUGUGGUCCGGUGACGUGAGUCACCGGACUUAGCUCGUCUUGG [salish99_S_TOV1_R5_090] (Eterna round: R97, puzzle: Sensor, turn-off variant 1)	66 nM	66.7 nM				
CCAAAGUCAGGAUAUACAUGAGGAUCACCCAUGUAAAAUUUUAAUUUAAUUUGAAGGUGUAGAAGGGACAAACC [Ex3 #32] (Eterna round: R97, puzzle: Exclusion 3)	30.5 nM	30.3 nM				
UUUUUACAUGAGGAUCACCCAUGUCAGGAUAUUCUUAUAUUUUAUUAUUUUAUUUUUUGAAGAAGGGACUAUUA [My solution] (puzzle: Exclusion 1)				99.4 nM		
GCCAAUGUGGAGGAUAUCGACUUCGAAAGAAGUCGAGAAGGCCACACAUGAGGAUCACCCAUGUGAUGCCAGGC [Omei Ex6 H10] (Eterna round: R97, puzzle: Exclusion 6)	216 nM	189 nM				
CUAAUAUAUCAGGAUAUGAUUAUAUGUGUUAGAUCAGAAGGGAUAACAUGAGGAUCACCCAUGUUGUGGAGUGA [JR_Ex6_Sub035] (Eterna round: R97, puzzle: Exclusion 6)	67.3 nM	64.2 nM				
